# How the values were obtained:
# human PD-L1 [1] = biological target: T1, human PD-L1 (human, UniProt Q9NZQ7 19-290); experiment: flow cytometry on CHO cells stably expressing PD-L1
# T1 construct: also called huPD-L1; CD274
# T1 sequence (Q9NZQ7 19-290): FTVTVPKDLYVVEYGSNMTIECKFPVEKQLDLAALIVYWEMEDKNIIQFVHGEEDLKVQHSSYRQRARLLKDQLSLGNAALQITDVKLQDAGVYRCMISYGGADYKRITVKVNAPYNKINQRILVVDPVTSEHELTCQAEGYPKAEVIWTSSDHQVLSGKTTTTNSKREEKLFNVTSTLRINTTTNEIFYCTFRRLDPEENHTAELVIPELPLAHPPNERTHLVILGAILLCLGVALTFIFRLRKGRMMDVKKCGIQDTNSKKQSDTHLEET
# human CD28 [2] = biological target: T2, human CD28 (human, UniProt P10747 19-220); experiment: flow cytometry on Jurkat cells (CD28)
# T2 construct: Endogenous CD28 on Jurkat/IL2 reporter cells
# human CD28 [3] = biological target: human CD28 (human, UniProt P10747 19-220); experiment: flow cytometry, Jurkat cells (CD28)
# human PD-L1 [4] = biological target: T3, human PD-L1 (human, UniProt Q9NZQ7 19-290); experiment: flow cytometry, CHO cells stably expressing PD-L1
# T3 construct: also called huPD-L1; CD274
# T3 sequence (Q9NZQ7 19-290): as above
# human PD-L1 [5] = biological target: T3, human PD-L1; experiment: flow cytometry; PD-L1 MFI over CD28 MFI
# [6] = biological target: T4, CD28, endogenously expressed on Jurkat/IL2 reporter cells (human, UniProt P10747 19-220); experiment: flow cytometry, Jurkat/IL2 reporter cells (endogenous CD28)
# T4 construct: whole, on cells
# [7] = biological target: T5, human PD-L1 (huPD-L1), full-length, stably expressed on CHO cells (human, UniProt Q9NZQ7 19-290); experiment: flow cytometry, CHO cells expressing huPD-L1
# T5 construct: whole, on cells
# [8] = biological target: T6, human CTLA4 (huCTLA4), full-length, stably expressed on CHO cells (human, UniProt P16410 36-223); experiment: flow cytometry, CHO cells expressing huCTLA4
# T6 construct: whole, on cells
# [9] = biological target: T7, human PD-L1 (CD274), full-length, expressed on the surface of CHO cells (human, UniProt Q9NZQ7 19-290); experiment: flow cytometry on PD-L1 CHO cells; MFI against WT CD80 ECD-Fc (R&D)
# T7 construct: also called huPD-L1; B7-H1
# [10] = biological target: T8, human CD28, endogenously expressed on Jurkat/IL2 reporter cells (human, UniProt P10747 19-220); experiment: flow cytometry, Jurkat/IL2 reporter cells (endogenous CD28), 33.3 nM Fc fusion, PE anti-human Fc
# T8 construct: This is the endogenous CD28 of Jurkat cells
# [11] = biological target: T8, human CD28, endogenously expressed on …; experiment: flow cytometry on Jurkat cells (CD28); MFI against WT CD80 ECD-Fc (R&D)
# [12] = biological target: T9, human CTLA-4 (CTLA4), full-length, expressed on the surface of CHO cells (human, UniProt P16410 36-223); experiment: flow cytometry, CHO cells stably expressing human CTLA-4, 33.3 nM Fc fusion, PE anti-human Fc
# T9 construct: also called huCTLA4
# [13] = biological target: T7, human PD-L1 (CD274), full-length, …; experiment: flow cytometry; MFI on PD-L1 CHO cells over MFI on Jurkat cells (CD28)
# [14] = biological target: T7, human PD-L1 (CD274), full-length, …; experiment: flow cytometry, CHO cells stably expressing human PD-L1, 33.3 nM Fc fusion, PE anti-human Fc
# [15] = biological target: T9, human CTLA-4 (CTLA4), full-length, …; experiment: flow cytometry on CTLA-4 CHO cells; MFI against WT CD80 ECD-Fc (R&D)
# T7 sequence (Q9NZQ7 19-290): as above
# T9 sequence (P16410 36-223): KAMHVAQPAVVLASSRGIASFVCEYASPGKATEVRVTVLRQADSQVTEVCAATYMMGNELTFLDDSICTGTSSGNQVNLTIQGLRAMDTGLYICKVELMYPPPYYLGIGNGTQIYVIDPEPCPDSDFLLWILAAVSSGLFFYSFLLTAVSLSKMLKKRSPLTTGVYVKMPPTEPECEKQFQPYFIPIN
# T5 sequence (Q9NZQ7 19-290): as the sequence (Q9NZQ7 19-290) above
# T6 sequence (P16410 36-223): as the sequence (P16410 36-223) above
binder,measurement,setting,value
"CD80 E35D/M47V/N48K/V68M/K89N IgV-Fc, GS(G4S)3 linker (Fc fusion, not shown: a dimerising Fc or GST) VIHVTKEVKEVATLSCGHNVSVEELAQTRIYWQKDKKMVLTMMSGDVKIWPEYKNRTIFDITNNLSIMILALRPSDEGTYECVVLKYENDAFKREHLAEVTLSVKADGSGGGGSGGGGSGGGGS",MFI at 33.3 nM,human PD-L1 [1],24200 MFI
same,MFI at 33.3 nM,human CD28 [2],2110 MFI
"CD80 E35D/D46V/M47L/V68M/L85Q/E88D IgV-Fc, GS(G4S)3 linker (Fc fusion, not shown: a dimerising Fc or GST) VIHVTKEVKEVATLSCGHNVSVEELAQTRIYWQKDKKMVLTMMSGVLNIWPEYKNRTIFDITNNLSIMILALRPSDEGTYECVVQKYDKDAFKREHLAEVTLSVKADGSGGGGSGGGGSGGGGS",MFI at 33.3 nM,human PD-L1 [1],22600 MFI
same,MFI at 33.3 nM,human CD28 [2],267 MFI
"CD80 ECD-Fc (inert) with GSG4S linker, Example 16 (Fc fusion) VIHVTKEVKEVATLSCGHNVSVEELAQTRIYWQKEKKMVLTMMSGDMNIWPEYKNRTIFDITNNLSIVILALRPSDEGTYECVVLKYEKDAFKREHLAEVTLSVKADFPTPSISDFEIPTSNIRRIICSTSGGFPEPHLSWLENGEELNAINTTVSQDPETELYAVSSKLDFNMTTNHSFMCLIKYGHLRVNQTFNWNTTKQEHFPDNGSGGGGSEPKSSDKTHTCPPCPAPEAEGAPSVFLFPPKPKDTLMISRTPEVTCVVVDVSHEDPEVKFNWYVDGVEVHNAKTKPREEQYNSTYRVVSVLTVLHQDWLNGKEYKCKVSNKALPAPIEKTISKAKGQPREPQVYTLPPSREEMTKNQVSLTCLVKGFYPSDIAVEWESNGQPENNYKTTPPVLDSDGSFFLYSKLTVDKSRWQQGNVFSCSVMHEALHNHYTQKSLSLSPG",MFI at 33.3 nM,human PD-L1 [1],35 MFI
same,MFI at 33.3 nM,human CD28 [2],37 MFI
"CD80 IgV-Fc T13R/Q33R/E35D/M38I/M47L/V68M (Fc fusion, not shown: a dimerising Fc or GST) VIHVTKEVKEVARLSCGHNVSVEELAQTRIYWRKDKKIVLTMMSGDLNIWPEYKNRTIFDITNNLSIMILALRPSDEGTYECVVLKYEKDAFKREHLAEVTLSVKAD",Fold change to WT CD80,human CD28 [3],0.4 fold
same,MFI at 33.3 nM,human CD28 [3],13.8 MFI
same,Fold change to WT CD80,human PD-L1 [4],87 fold
same,MFI at 33.3 nM,human PD-L1 [4],4480 MFI
same,Ratio of PDL1:CD28,human PD-L1 [5],325 ratio
"variant CD80 IgV-Fc E35D/M47V/V68M/L85M (Fc fusion, not shown: small tags and cut ends; a dimerising Fc or GST) VIHVTKEVKEVATLSCGHNVSVEELAQTRIYWQKDKKMVLTMMSGDVNIWPEYKNRTIFDITNNLSIMILALRPSDEGTYECVVMKYEKDAFKREHLAEVTLSVKAD",MFI at 33.3 nM,[6],201 MFI
same,MFI at 33.3 nM,[7],9180 MFI
same,MFI at 33.3 nM,[8],16000 MFI
"variant CD80 IgV-Fc V22A/R29H/E35D/D46E/M47I (Fc fusion, not shown: a dimerising Fc or GST) VIHVTKEVKEVATLSCGHNVSAEELAQTHIYWQKDKKMVLTMMSGEINIWPEYKNRTIFDITNNLSIVILALRPSDEGTYECVVLKYEKDAFKREHLAEVTLSVKAD",Fold change to WT,[9],3.2 fold
same,MFI at 33.3 nM,[10],323 MFI
same,Fold change to WT,[11],0.04 fold
same,MFI at 33.3 nM,[12],77400 MFI
same,Ratio of PDL1:CD28,[13],79 ratio
same,MFI at 33.3 nM,[14],25400 MFI
same,Fold change to WT CD80,[15],0.43 fold
"variant CD80 IgV-Fc Q33L/E35D/N48K/L85Q/L97Q (Fc fusion, not shown: a dimerising Fc or GST) VIHVTKEVKEVATLSCGHNVSVEELAQTRIYWLKDKKMVLTMMSGDMKIWPEYKNRTIFDITNNLSIVILALRPSDEGTYECVVQKYEKDAFKREHQAEVTLSVKAD",Fold change to WT,[9],5.69 fold
same,MFI at 33.3 nM,[10],279 MFI
same,Fold change to WT,[11],0.04 fold
same,MFI at 33.3 nM,[12],1180 MFI
same,Ratio of PDL1:CD28,[13],162 ratio
same,MFI at 33.3 nM,[14],45200 MFI
same,Fold change to WT CD80,[15],0.01 fold
